# Columns and labels:
# [1] = tested on: cynomolgus CD39 expressing CHO cells (CHO-cyCD39); experiment: Inhibition of the enzymatic activity of cellular CD39 in CHO-cyCD39; format: cell-based, cynomolgus (Macaca fascicularis); conditions: qualitative
# Protocol: The inhibition of the CD39 enzymatic activity in CD39-expressing cells by antibodies was evaluated using Cell Titer GIo™ (Promega, reference G7571) that allows assessment of ATP hydrolysis through use of a reagent that generates a luminescent signal proportional to the amount of ATP present. The assay was thus designed to permit assessment of the inhibition of ATP hydrolyzed by CD39 in the cell culture supernatant. Briefly, 5×10^4 Ramos human lymphoma cells, 5×10^3 human CD39−, cynomolgus CD39—and mouse CD39− expressing CHO cells, were incubated 1 hour at 37° C. with anti-CD39 antibodies from 30 μg/ml to 5×10^−4 μg/ml. Cells were then incubated with 20 μM ATP for 1 additional hour at 37° C. Plates were centrifuged for 2 min at 400 g and 50 μl cell supernatant are transferred in a luminescence microplate (white wells). 50 μl CellTiter-Glo™ Reagent (CTG) was added to the supernatant and emitted light was quantified after a 5 min incubation in the dark using a Enspire™ luminometer. Anti-CD39 antibody efficacy was determined by comparing emitted light in presence of antibody with ATP alone (maximal light emission) and ATP together with cells (minimal light emission).
# [2] = molecular target: T1, human Ramos lymphoma cells (CD39) (Homo sapiens, UniProt P49961); experiment: Antibody titration on Ramos cells by flow cytometry; format: binding; conditions: qualitative
# T1 construct: cells that endogenously express CD39 at their surface; host or cells: Ramos
# T1 sequence (P49961 1-510): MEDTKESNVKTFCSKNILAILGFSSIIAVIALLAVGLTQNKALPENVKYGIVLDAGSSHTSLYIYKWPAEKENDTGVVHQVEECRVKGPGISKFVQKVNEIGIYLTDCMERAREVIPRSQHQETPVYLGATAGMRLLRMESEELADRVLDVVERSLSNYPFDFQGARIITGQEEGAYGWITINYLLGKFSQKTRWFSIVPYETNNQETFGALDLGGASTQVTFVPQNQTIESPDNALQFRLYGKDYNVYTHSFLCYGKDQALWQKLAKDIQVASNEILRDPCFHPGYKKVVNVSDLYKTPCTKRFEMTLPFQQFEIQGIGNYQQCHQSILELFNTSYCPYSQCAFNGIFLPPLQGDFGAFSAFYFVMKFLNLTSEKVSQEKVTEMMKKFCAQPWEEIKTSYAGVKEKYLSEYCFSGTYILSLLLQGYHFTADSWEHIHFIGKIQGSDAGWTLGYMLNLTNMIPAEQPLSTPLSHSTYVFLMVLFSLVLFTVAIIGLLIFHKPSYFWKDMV
# Protocol: Antibody I-394 was tested in two repeated experiments for binding to CHO cells expressing human CD39, CHO cells expressing cynomolgus (Macaca fascicularis) CD39, CHO cells expressing murine CD39, and human Ramos lymphoma cells (ATCC™, reference CRL-1596). Cells were incubated with various concentration of unlabeled anti-CD39 antibody from 30 μg/ml to 5×10^−4 μg/ml, for 30 minutes at 4° C. After washes, cells were incubated with Goat anti-mouse H+L labeled secondary antibody for 30 min at 4° C.
# [3] = tested on: allogenic CD4 T cells; experiment: Mixed lymphocytes reaction (MLR) with ATP-activated DC; format: cell-based, human; conditions: MoDC activated in presence of ATP and antibody
# Protocol: Briefly, human monocytes were purified from human healthy blood and differentiated into MoDC in presence of GM-CSF and IL-4 during 6 days. Then MoDC were activated in presence of ATP (Sigma, 0.25-1 mM) during 24 hours and DC activation were assessed by analyzing CD80, CD83 and HLA-DR expression by flow cytometry. In some cases, MoDC were preincubated for 1 hour in presence of CD39 inhibitor: […] (Tocris, 250 μM), CD73 inhibitor: APCP (Tocris 50 μM), anti-CD39 blocking antibody I-394 or BY40 (for BY40 see WO2009/095478), or anti-CD73 blocking antibodies. LPS (Invivogen, 10 ng/ml) was used as positive control. To assess resulting effect of ATP-mediated DC activation on CD4 T cells activation, ATP-activated DC were washed and then incubated with allogenic CD4 T cells (ratio 1 MoDC/4 T cells) for a mixed lymphocytes reaction (MLR) during 5 days. T cells activation and proliferation were analyzed through CD25 expression and Cell Trace Violet dilution by flow cytometry (FIG. 8).
# Antibodies were tested to assess their efficacy in reducing T cell suppression in the assay described in Example 12. […] T cells activation and proliferation were analyzed through CD25 expression and Cell Trace Violet dilution by flow cytometry.
# [4] = molecular target: T2, Human CD39-L4 (NTPDase5, ENTPD5) (Homo sapiens, UniProt O75356); experiment: ELISA titration on CD39-L4; format: binding
# T2 sequence (O75356 25-428): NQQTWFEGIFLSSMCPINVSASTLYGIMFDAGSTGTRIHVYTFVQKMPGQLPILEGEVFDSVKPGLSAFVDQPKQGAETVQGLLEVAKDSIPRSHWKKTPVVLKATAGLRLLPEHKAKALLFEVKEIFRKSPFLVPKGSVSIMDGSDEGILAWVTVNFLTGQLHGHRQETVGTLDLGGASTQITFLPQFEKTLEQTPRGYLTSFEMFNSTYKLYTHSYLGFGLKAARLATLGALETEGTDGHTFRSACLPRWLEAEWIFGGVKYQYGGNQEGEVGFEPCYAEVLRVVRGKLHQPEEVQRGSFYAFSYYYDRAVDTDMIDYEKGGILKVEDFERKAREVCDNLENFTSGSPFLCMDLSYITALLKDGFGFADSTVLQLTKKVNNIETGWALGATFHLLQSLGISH
# Protocol: Antibody I-394 was tested for binding to recombinant human CD39 isoforms (Rec-huCD39 isoforms) having amino acid sequences shown below were coated in 96-well plate in PBS 1X at 500 ng/ml or 1 μg/ml at 4° C. overnight. Wells were washed in TBS Tween® 20 (polysorbate 20), and further saturated 2H at RT in TBS Blocking buffer. Dose range concentration of primary antibody was incubated in TBS blocking buffer for 2 h at RT. Wells were washed in TBS Tween® 20 (polysorbate 20). […] Optical density was measured on Enspire™ at OD=450.
substance,measurement,setting,value
"I-394: anti-CD39 antibody, VH SEQ ID NO: 6, VL SEQ ID NO: 7, human IgG1 Fc with L234A/L235E/G237A/A330S/P331S",blocking CD39 enzymatic activity in CHO-cyCD39,[1],blocks CD39 enzymatic activity
same,binding to Ramos lymphoma cells,[2],bound
same,"T cells proliferation and activation in MLR (CD25, Cell Trace Violet dilution)",[3],resulted in higher T cells proliferation and activation
same,binding to CD39-L4 in ELISA,[4],"not to any of the isoforms CD39-L1, -L2, -L3 or -L4"

# Source: patent publication US12202907B2, “Nucleic acids encoding and methods of producing proteins comprising antibody chains” (Innate Pharma, priority 2018, dated 2025)
